Measurements published in patent publication US20240382572A1, “COMBINATIONS OF CHECKPOINT INHIBITORS AND THERAPEUTICS TO TREAT CANCER” (Cognate Bioservices, Inc., priority 2013, published 2024).

Tests used:
[1] = target: T1, PD-1 (Homo sapiens, UniProt Q15116); conditions: phase II, DLBCL, cited from earlier work
T1 construct: host or cells: Trial subjects (patients); PD-1 is endogenous

[2] = system: GL261 murine glioma; experiment: Flow cytometry of tumor, lymph node and spleen harvests from GL261 glioma-bearing mice; type: in vivo, C57BL/6 mice
Description: Mice were intracranially implanted with GL261 murine glioma and then administered PBS (Ix) or lysate-pulsed DC vaccine subcutaneously on days 3 and 13 post-tumor implant. On day 16, 72 h after the second treatment, mice were euthanized and spleen, lymph, and brain hemispheres harvested for processing.
Spleen, lymph, and brain hemispheres harvested for processing on day 16 post-implant (72 h after second treatment).
Bone marrow-derived DC and vaccination. […] Briefly, bone marrow cells were cultured in a humidified atmosphere of 5% CO2 at 37° C. overnight in complete RPMI (Mediatech, Inc. Herndon, VA) (supplemented with 10% FBS, 1% (v/v) penicillin and streptomycin). The day following, nonadherent cells were collected and plated with murine interleukin-4 (IL-4, 400 IU/mL, R&D Systems, Minneapolis, MN) and murine granulocyte-macrophage colony stimulating factor (GM-CSF, 100 ng/mL, R&D Systems, Minneapolis, MN). On day 4, adherent cells were re-fed with fresh media with the same cytokines. On day 7, DCs were harvested and resuspended at 1×10^6 cells/ml in complete RPMI and pulsed with GL261 lysate (250 μg/mL). On day 8, DCs were collected and resuspended at 2×10^6 cells/mL in PBS Ix and immediately prepared for injection in 0.2 mL of cell suspension per mouse. Injections were given subcutaneously (s.c.) at 4 sites on the back.
Intracranial glioma implants. […]

[3] = system: GL261 murine glioma; experiment: Survival of mice with intracranial GL261 glioma; type: in vivo, C57BL/6 mice; conditions: mice with well-established intracranial GL261 glioma

T1 sequence (Q15116 25-288): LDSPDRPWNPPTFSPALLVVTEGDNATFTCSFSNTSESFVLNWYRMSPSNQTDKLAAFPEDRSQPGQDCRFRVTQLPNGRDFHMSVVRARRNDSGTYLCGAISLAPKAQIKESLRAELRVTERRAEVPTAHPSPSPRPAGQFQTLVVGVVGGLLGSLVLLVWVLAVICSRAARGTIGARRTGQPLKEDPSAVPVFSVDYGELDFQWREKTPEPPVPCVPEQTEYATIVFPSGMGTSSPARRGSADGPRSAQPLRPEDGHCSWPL

Molecule	subjects alive ([1]; preliminary results) [%]	subjects progression-free at the end of the follow-up period ([1]; preliminary results) [%]	activity of natural killer cells [1]	myeloid cells expressing PD-L1 (Thy1.2- Ly6C+ PD-L1+) in tumor [2]	activated tumor-infiltrating lymphocytes (CD3+ CD8+ CD25+) ([2]; day 16 post-implant)	survival [3]
CT-011: humanized IgG1 monoclonal antibody against PD-1	82	70	augments the activity of natural killer cells	–	–	–
FC(F)(F)c1ccc(CNc2ccc(Cc3c[nH]c4ncc(Cl)cc34)cn2)cn1 [PLX3397]	–	–	–	absence of these Ly6C^+ PD-L1^+ cells	significant tumor-infiltrating population	entirely recovered survival benefit
